Test results: patent US20200338146A1

Columns and labels:
[1] = biological target: AAV2 virion expressing GFP (AAV2-CMV-GFP) (AAV2) (UniProt P03135); assay: cell-based or functional assay
[2] = biological target: AAV2.5T.LSV1 virion expressing GFP (AAV2.5T.LSV1-CMV-GFP); assay: cell-based or functional assay

pooled human IgG antibodies (Gammagard IVIG)
IC50 of inhibition of GFP expression in transduced 293T cells (reciprocal dilution of the pooled human IgG antibody sample at which GFP expression is reduced by 50%) (reciprocal dilution) [1]: 104
IC50 of inhibition of GFP expression in transduced 293T cells (reciprocal dilution of the pooled human IgG antibody sample at which GFP expression is reduced by 50%) (reciprocal dilution) [2]: 9.3
